In publication PMC9108626, “Mammalian UPF3A and UPF3B can activate nonsense‐mediated mRNA decay independently of their exon junction complex binding” (The EMBO Journal, 2022):

Columns and labels:
Conditions in all cases: partners not purified
[1] = target: T1, EIF4A3 (endogenous, HeLa Tet‐off) (human (endogenous in HeLa), UniProt P38919 1-411); test: co-IP; EIF4A3-IP (IgG-IP as control) from HeLa Tet-off cells and 3B^KO#3 HeLa Tet-off cells, with overexpression of CASC3 wild type or the HDAA mutant; immunoblot
T1 construct: EIF4A3, human, endogenous in HeLa Tet-off cells; also called EJC; source: endogenous, lysate of HeLa Tet-off and 3B^KO#3 HeLa Tet-off cells

[2] = target: T2, EIF4A3 (endogenous, HCT116) (human (endogenous in HCT116), UniProt P38919 1-411); test: co-IP; EIF4A3-IP from 3^DKO#2 HCT116 cells stably expressing FLAG-tagged UPF3 proteins, UPF3A chimeras or EGFP; FLAG-tagged proteins quantified against EIF4A3; immunoblot
T2 construct: EIF4A3, human, core factor of the exon junction complex, endogenous in HCT116 cells; also called core EJC factor EIF4A3; source: endogenous, HCT116 lysate

[3] = target: T2, EIF4A3 (endogenous, HCT116); test: co-IP; EIF4A3-IP (antibody on protein-A Dynabeads; normal rabbit IgG as control) from WT and UPF3B mutant (3B^Δ2BD, 3B^KO) HCT116 lysates; 4°C, washes with 150 mM NaCl; immunoblot

T2 sequence (P38919 whole entry): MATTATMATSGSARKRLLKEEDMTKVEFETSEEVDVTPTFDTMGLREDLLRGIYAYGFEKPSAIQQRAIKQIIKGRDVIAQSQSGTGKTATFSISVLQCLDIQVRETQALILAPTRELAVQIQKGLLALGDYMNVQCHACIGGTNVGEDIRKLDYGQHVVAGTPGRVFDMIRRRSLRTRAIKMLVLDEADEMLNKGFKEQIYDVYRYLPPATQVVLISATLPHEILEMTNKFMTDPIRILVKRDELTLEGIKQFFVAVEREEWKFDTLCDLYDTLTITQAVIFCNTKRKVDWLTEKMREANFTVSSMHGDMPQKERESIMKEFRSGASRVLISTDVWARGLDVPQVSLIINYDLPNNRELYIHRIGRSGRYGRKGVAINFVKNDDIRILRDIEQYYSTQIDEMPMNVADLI
T1 sequence (P38919 whole entry): as above

B1: UPF3B (endogenous, HeLa Tet‐off) (natural protein, human (endogenous in HeLa), UniProt Q9BZI7 1-483, looked up)
chain: MKEEKEHRPKEKRVTLLTPAGATGSGGGTSGDSSKGEDKQDRNKEKKEALSKVVIRRLPPTLTKEQLQEHLQPMPEHDYFEFFSNDTSLYPHMYARAYINFKNQEDIILFRDRFDGYVFLDNKGQEYPAIVEFAPFQKAAKKKTKKRDTKVGTIDDDPEYRKFLESYATDNEKMTSTPETLLEEIEAKNRELIAKKTTPLLSFLKNKQRMREEKREERRRREIERKRQREEERRKWKEEEKRKRKDIEKLKKIDRIPERDKLKDEPKIKVHRFLLQAVNQKNLLKKPEKGDEKELDKREKAKKLDKENLSDERASGQSCTLPKRSDSELKDEKPKRPEDESGRDYREREREYERDQERILRERERLKRQEEERRRQKERYEKEKTFKRKEEEMKKEKDTLRDKGKKAESTESIGSSEKTEKKEEVVKRDRIRNKDRPAMQLYQPGARSRNRLCPPDDSTKSGDSAAERKQESGISHRKEGGEE
notes: UPF3B, human, endogenous in HeLa Tet-off cells; source: endogenous, HeLa Tet-off lysate
[1]
  fold increase of co-IP upon overexpression of wild-type CASC3: 2.6 fold

B2: FLAG‐tagged human UPF3A (stably expressed in 3^DKO#2 cells) (natural protein, UniProt Q9H1J1 1-476, looked up)
chain: MRSEKEGAGGLRAAVAARGPSGREKLSALEVQFHRDSQQQEAETPPTSSSGCGGGAGKPREEKRTALSKVVIRRLPPGLTKEQLEEQLRPLPAHDYFEFFAADLSLYPHLYSRAYINFRNPDDILLFRDRFDGYIFLDSKGLEYPAVVEFAPFQKIAKKKLRKKDAKTGSIEDDPEYKKFLETYCVEEEKTSANPETLLGEMEAKTRELIARRTTPLLEYIKNRKLEKQRIREEKREERRRRELEKKRLREEEKRRRREEERCKKKETDKQKKIAEKEVRIKLLKKPEKGEEPTTEKPKERGEEIDTGGGKQESCAPGAVVKARPMEGSLEEPQETSHSGSDKEHRDVERSQEQESEAQRYHVDDGRRHRAHHEPERLSRRSEDEQRWGKGPGQDRGKKGSQDSGAPGEAMERLGRAQRCDDSPAPRKERLANKDRPALQLYDPGARFRARECGGNRRICKAEGSGTGPEKREEAE
notes: UPF3A, human, CCDS9543.1; wild type; domains are defined over residues 2-476; cloned in pcDNA3ez-FLAG and moved to a Tet-ON PiggyBac plasmid; also called hUPF3A; FLAG‐UPF3A
[2]
  fold weaker co-IP against UPF3B: ~3 fold

B3: UPF3A (endogenous, HCT116) (natural protein, human (endogenous in HCT116), UniProt Q9H1J1 1-476, looked up)
chain: MRSEKEGAGGLRAAVAARGPSGREKLSALEVQFHRDSQQQEAETPPTSSSGCGGGAGKPREEKRTALSKVVIRRLPPGLTKEQLEEQLRPLPAHDYFEFFAADLSLYPHLYSRAYINFRNPDDILLFRDRFDGYIFLDSKGLEYPAVVEFAPFQKIAKKKLRKKDAKTGSIEDDPEYKKFLETYCVEEEKTSANPETLLGEMEAKTRELIARRTTPLLEYIKNRKLEKQRIREEKREERRRRELEKKRLREEEKRRRREEERCKKKETDKQKKIAEKEVRIKLLKKPEKGEEPTTEKPKERGEEIDTGGGKQESCAPGAVVKARPMEGSLEEPQETSHSGSDKEHRDVERSQEQESEAQRYHVDDGRRHRAHHEPERLSRRSEDEQRWGKGPGQDRGKKGSQDSGAPGEAMERLGRAQRCDDSPAPRKERLANKDRPALQLYDPGARFRARECGGNRRICKAEGSGTGPEKREEAE
notes: UPF3A, human, endogenous in HCT116 cells; source: endogenous, HCT116 lysate (WT, 3B^Δ2BD, 3B^KO cells)
[3]
  fold increase of co-IP in UPF3B mutant cells over WT cells: ~2 fold

B4: UPF3A (endogenous, UPF3B knockout HeLa Tet‐off) (natural protein, human (endogenous in HeLa), UniProt Q9H1J1 1-476, looked up)
chain: MRSEKEGAGGLRAAVAARGPSGREKLSALEVQFHRDSQQQEAETPPTSSSGCGGGAGKPREEKRTALSKVVIRRLPPGLTKEQLEEQLRPLPAHDYFEFFAADLSLYPHLYSRAYINFRNPDDILLFRDRFDGYIFLDSKGLEYPAVVEFAPFQKIAKKKLRKKDAKTGSIEDDPEYKKFLETYCVEEEKTSANPETLLGEMEAKTRELIARRTTPLLEYIKNRKLEKQRIREEKREERRRRELEKKRLREEEKRRRREEERCKKKETDKQKKIAEKEVRIKLLKKPEKGEEPTTEKPKERGEEIDTGGGKQESCAPGAVVKARPMEGSLEEPQETSHSGSDKEHRDVERSQEQESEAQRYHVDDGRRHRAHHEPERLSRRSEDEQRWGKGPGQDRGKKGSQDSGAPGEAMERLGRAQRCDDSPAPRKERLANKDRPALQLYDPGARFRARECGGNRRICKAEGSGTGPEKREEAE
notes: UPF3A, human, endogenous in HeLa Tet-off cells; source: endogenous, 3B^KO#3 HeLa Tet-off lysate
[1]
  fold increase of co-IP upon overexpression of wild-type CASC3: 3 fold
